How the values were obtained:
Experiment in all cases: cleavage_in_vitro
[1] = test system: T1, OMNI-93 (metagenomic, unknown); settings: TXTL
T1 sequence: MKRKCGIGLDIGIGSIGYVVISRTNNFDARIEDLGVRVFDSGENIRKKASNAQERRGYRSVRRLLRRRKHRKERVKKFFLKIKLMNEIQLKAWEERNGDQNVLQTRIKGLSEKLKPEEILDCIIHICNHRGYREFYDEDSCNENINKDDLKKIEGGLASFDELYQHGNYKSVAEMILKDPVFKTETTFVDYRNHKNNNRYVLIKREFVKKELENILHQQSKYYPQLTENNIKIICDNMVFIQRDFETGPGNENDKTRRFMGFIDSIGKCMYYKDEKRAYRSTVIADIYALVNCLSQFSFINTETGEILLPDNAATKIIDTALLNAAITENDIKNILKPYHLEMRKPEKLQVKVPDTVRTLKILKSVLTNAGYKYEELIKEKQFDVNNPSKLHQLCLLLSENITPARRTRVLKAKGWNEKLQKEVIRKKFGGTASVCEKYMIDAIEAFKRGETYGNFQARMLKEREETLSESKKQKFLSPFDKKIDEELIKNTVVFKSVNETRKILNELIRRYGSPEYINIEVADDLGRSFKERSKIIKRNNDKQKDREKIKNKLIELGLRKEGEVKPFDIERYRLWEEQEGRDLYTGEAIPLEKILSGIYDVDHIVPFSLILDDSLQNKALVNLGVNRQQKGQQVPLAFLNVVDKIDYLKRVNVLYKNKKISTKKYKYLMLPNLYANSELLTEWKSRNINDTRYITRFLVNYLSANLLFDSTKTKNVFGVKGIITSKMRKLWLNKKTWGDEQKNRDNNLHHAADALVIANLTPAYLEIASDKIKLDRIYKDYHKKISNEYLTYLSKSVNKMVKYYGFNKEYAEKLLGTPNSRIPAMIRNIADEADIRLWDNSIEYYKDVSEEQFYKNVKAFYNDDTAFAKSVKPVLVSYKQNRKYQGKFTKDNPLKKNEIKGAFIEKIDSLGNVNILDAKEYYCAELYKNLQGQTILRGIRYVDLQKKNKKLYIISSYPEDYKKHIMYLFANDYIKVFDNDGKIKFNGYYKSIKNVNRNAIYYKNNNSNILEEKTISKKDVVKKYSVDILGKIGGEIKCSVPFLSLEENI

[2] = test system: T2, OMNI-118 (metagenomic, unknown); settings: TXTL; PAM NNRTTHNN
T2 sequence: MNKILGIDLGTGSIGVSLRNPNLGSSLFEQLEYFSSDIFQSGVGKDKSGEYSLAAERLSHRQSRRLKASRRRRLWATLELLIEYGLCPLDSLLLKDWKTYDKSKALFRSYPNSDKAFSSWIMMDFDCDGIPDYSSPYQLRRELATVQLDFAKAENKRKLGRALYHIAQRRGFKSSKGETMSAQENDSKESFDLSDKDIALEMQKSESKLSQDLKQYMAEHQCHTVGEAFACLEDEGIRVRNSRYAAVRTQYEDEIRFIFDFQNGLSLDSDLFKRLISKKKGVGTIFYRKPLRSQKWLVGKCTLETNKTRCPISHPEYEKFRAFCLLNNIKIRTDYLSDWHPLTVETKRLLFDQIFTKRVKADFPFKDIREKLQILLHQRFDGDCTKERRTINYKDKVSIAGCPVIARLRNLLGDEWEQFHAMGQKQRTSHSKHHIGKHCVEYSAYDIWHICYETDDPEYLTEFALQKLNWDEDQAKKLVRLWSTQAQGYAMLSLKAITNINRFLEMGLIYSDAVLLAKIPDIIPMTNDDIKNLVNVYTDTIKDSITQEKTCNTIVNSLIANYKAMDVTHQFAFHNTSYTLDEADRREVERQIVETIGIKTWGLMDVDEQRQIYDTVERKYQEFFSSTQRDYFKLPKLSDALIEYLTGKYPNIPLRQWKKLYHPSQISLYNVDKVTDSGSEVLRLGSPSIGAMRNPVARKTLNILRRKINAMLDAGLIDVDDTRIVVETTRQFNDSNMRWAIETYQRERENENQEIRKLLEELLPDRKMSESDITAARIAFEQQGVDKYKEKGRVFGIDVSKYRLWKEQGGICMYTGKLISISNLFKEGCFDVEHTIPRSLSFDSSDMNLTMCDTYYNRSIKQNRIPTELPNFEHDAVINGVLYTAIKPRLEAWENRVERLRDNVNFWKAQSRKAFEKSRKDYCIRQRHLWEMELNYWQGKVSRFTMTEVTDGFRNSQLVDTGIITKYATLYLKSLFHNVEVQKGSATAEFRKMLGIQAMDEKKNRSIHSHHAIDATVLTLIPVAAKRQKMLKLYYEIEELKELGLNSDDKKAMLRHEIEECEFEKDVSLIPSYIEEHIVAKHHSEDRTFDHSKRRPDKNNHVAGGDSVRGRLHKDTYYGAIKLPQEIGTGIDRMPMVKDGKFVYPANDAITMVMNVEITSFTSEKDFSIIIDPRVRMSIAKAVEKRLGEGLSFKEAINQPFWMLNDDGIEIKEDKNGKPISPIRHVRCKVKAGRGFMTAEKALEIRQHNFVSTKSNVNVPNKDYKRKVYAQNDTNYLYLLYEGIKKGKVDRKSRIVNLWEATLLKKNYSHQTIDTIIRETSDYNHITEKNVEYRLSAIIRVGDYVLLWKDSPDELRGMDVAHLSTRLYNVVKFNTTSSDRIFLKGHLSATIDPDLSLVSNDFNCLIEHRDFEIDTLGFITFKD

[3] = test system: T3, OMNI-132 (metagenomic, unknown); settings: TXTL; PAM NNAAATNN
T3 sequence: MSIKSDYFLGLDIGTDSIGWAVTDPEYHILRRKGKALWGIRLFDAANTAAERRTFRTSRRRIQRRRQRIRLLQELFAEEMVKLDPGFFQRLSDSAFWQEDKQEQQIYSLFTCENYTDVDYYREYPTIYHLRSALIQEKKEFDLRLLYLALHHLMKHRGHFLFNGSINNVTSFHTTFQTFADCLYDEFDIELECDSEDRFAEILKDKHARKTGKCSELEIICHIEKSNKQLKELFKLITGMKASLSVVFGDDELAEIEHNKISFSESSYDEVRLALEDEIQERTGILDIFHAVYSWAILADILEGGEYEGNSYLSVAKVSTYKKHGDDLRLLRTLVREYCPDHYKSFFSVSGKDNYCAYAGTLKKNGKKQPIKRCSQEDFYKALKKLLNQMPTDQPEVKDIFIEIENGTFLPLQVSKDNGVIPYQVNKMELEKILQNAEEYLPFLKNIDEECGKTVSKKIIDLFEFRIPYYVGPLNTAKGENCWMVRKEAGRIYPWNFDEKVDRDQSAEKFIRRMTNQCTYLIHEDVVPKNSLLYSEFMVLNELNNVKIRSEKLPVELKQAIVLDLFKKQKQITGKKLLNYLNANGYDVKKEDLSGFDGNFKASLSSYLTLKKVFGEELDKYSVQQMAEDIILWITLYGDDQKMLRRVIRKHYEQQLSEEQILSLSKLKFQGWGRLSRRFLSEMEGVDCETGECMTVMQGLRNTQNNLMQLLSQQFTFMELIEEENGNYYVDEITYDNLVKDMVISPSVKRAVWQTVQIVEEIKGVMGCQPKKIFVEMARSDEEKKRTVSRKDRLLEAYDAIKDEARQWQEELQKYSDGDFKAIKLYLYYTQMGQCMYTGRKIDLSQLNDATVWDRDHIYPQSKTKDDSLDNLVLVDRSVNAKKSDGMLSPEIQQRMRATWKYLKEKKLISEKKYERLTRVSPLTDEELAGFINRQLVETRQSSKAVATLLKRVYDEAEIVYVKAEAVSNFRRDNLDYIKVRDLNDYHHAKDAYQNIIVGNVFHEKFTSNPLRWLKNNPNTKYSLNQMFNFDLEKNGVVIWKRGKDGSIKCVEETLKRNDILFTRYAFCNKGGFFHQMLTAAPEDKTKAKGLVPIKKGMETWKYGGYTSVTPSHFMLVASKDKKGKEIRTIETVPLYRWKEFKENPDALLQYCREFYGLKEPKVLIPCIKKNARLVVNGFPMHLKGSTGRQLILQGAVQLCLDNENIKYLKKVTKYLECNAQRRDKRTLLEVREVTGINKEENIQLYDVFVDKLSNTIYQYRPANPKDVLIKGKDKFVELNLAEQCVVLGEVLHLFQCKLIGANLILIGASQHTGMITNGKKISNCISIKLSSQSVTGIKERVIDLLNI

Sequence | activity (1-depletion score) [2] | activity (1-depletion score) [3] | also measured
GGAAGAGCAGAGCCUUGGUCUCGUCUUAGUACUCUGUUGGAAACAACAAUAGUUCUAAGAUAAGGCUAUUUAUGCCGUAGGGUAUGGUGGUAUCCCUUUAAUCCACCUUUAAGCCAUUGCUUAUGCAAUGGCUUAUCUAUAUUUUUU / GGAAGAGCAGAGCCTTGGTCTCNNNNNNNN / NNNNNNNNGAGACCAAGGCTCTGCTCTTCC [T2 sgRNA 4 V2 ; T2 protospacer + 8N PAM library (pbPOS T2)] |  |  | activity (1-depletion score) ([1]; PAM NNGGGGNN): 0.97
GGAAGAGCAGAGCCUUGGUCUCGUUGUGAUUUGCUCUCAAAUGAAAAUUUGUGAGACUUAUCACAACAAGGCUAUAAGCCGAAGUAUUAACUCCGCGAUUAUGUCGUGGAGUUUUUUU / GGAAGAGCAGAGCCTTGGTCTCNNNNNNNN / NNNNNNNNGAGACCAAGGCTCTGCTCTTCC [T2 sgRNA 21 V2 ; T2 protospacer + 8N PAM library (pbPOS T2)] | 0.78 |  | 
GGAAGAGCAGAGCCUUGGUCUCGUUGUGAUUUGCUCUCAAAUGAAAAUUUGUGAGACUUAUCACAACAAGGCUAUAAGCCGAAGUAUUAACUCCGCGAUUUUGUCGUGGAGUUUUUUU / GGAAGAGCAGAGCCTTGGTCTCNNNNNNNN / NNNNNNNNGAGACCAAGGCTCTGCTCTTCC [T2 sgRNA 21 V1 ; T2 protospacer + 8N PAM library (pbPOS T2)] | 0.66 |  | 
GGAAGAGCAGAGCCUUGGUCUCGUUUGAGAGUAGUGUAAGAAAUUACACUACAAGUUCAAAUAAAAAUUUAUUCAAAUCCAUUUGCUACAUUGUGUAGAAUUUAAAGAUCUGGCAACAGAUCUUUUUUU / GGAAGAGCAGAGCCTTGGTCTCNNNNNNNN / NNNNNNNNGAGACCAAGGCTCTGCTCTTCC [T2 sgRNA 12 V2 ; T2 protospacer + 8N PAM library (pbPOS T2)] |  | 0.97 | 
GGAAGAGCAGAGCCUUGGUCUCGUUUGAGAGUAGUGUAAGAAAUUACACUACAAGUUCAAAUAAAAAUUUAUUCAAAUCCUUUUGCUACAUUGUGUAGAAUUUAAAGAUCUGGCAACAGAUCUUUUUUAUUUUUU / GGAAGAGCAGAGCCTTGGTCTCNNNNNNNN / NNNNNNNNGAGACCAAGGCTCTGCTCTTCC [T2 sgRNA 32 V1 ; T2 protospacer + 8N PAM library (pbPOS T2)] |  | 0.97 | 
GGAAGAGCAGAGCCUUGGUCUCGUUUUAGUACUCUGUUGGAAACAACAAUAGUUCUAAGAUAAGGCUAUUUAUGCCGUAGGGUAUGGUGGUAUCCCUUUAAUCCACCUUUAAGCCAUUGCUUAUGCAAUGGCUUAUCUAUAUUUUUU / GGAAGAGCAGAGCCTTGGTCTCNNNNNNNN / NNNNNNNNGAGACCAAGGCTCTGCTCTTCC [T2 sgRNA 4 V1 ; T2 protospacer + 8N PAM library (pbPOS T2)] |  |  | activity (1-depletion score) ([1]; PAM NNGGGGNN (specific NNRGGDNN)): 0.99

Source: patent publication US20240425885
